From US20140086904A1 (CHENGDU KANGHONG BIOTECHNOLOGIES, published 2014)
Changes are numbered by the printed parent chain.

B1: KS04 (antibody, human IgG1, kappa, V domains shown)
VH: QVQLVESGGGLVKPGGSLRLSCAASGFTFSNAWMNWVRQAPGKGLEWVAEIRSKSINSATHYAESVKGRFTISRDNSKKTLYLEMNSLRVEDTAVYYCSRNYYGSTYDYWGQGTTLTVSS
VL: EIVLTQSPDFQSVTPKEKVTITCRASQSIYSSLHWYQQKPDQSPKLLIKFASQSVSGVPSRFSGSGSGTDFTLTINSLEAEDAATYYCQQSHSWPFTFGSGTNVDIKR
B2: KS11 (antibody, human IgG1, kappa, V domains shown)
VH: B1 VH
VL: EIVLTQSPDFQSVSPKETVTITCRASQTVHMSLHWYQQKPNQSPRLLIKYGSQSFSGVPSRFSGSGSGTDFTLTINSLEPEDAATYYCQQSHWWPFTFGSGTNVDIKR
B3: KS10 (Glu) (antibody, V domains shown)
VH: B1 VH with Q1E, N76D, K79N, L81V, E84Q, R89K, V90T
VL: B1 VL with S93W
notes: Full-length IgG1 from CHO cells; VH SH01 with the first amino acid Glu, VK SH08
B4: KS12 (antibody, human IgG1, kappa, V domains shown)
VH: B1 VH
VL: B1 VL with S93W
B5: KS-2E (Fab, V domains shown)
VH: B1 VH with D108Q
VL: B2 VL with W93K
notes: Humanized Fab (heavy chain Fd fragment and light chain), expressed in E. coli periplasm
B6: KS08 (antibody, human IgG1, kappa, V domains shown)
VH: B1 VH
VL: B2 VL with W93F
B7: KS02 (antibody, human IgG1, kappa, V domains shown)
VH: B1 VH
VL: B2 VL with W93S
B8: KS07 (antibody, human IgG1, kappa, V domains shown)
VH: B1 VH
VL: B1 VL with S93F

Key:
[1] = target: T1, human tumor necrosis factor-α (R & D Co., Catalog Number: 210-TA-050) (human, UniProt P01375 77-233); test: cell-based or functional assay
T1 sequence (P01375 77-233 limits assumed): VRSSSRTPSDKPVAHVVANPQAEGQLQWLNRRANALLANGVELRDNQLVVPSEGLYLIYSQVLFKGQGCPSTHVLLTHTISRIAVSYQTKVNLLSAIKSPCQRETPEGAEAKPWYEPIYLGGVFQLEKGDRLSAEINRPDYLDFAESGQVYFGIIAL

[2] = target: T1, human tumor necrosis factor-α (R & D …); test: BLI, Octet RED 96, biotin-hTNF-α on streptavidin sensor, antibody in solution
Method: hTNF-α (R & D Co., 210-TA-050) and NHS-LCLC-biotin (Catalog Number: 21338, purchased from Thermo-fisher Co.,) were mixed uniformly at a molar ratio of 1:3 and kept at room temperature for 1 hour. Then, the remaining NHS-LCLC-biotin was removed by a PD-10 desalting column (Catalog Number: 17-0851-01, purchased from GE Co.,). The final conjugate products obtained were 50 μg/ml of biotin-hTNF-α.

[3] = target: T1, human tumor necrosis factor-α (R & D …); test: cell-based or functional assay; remark: listed apart in the source
[4] = target: T1, human tumor necrosis factor-α (R & D …); test: ELISA, plate coated with human TNF-α, Fab titrated, anti-human C-Kappa-HRP

Binder | EC50, L929 cytotoxicity experiment [1] [nM] | further results
B1 | 0.126 | 
B2 | 0.059 | 
B3 | 0.028 | Kd [2]: 2.18 pM; koff [2]: 1.02e-07 s⁻¹; kon [2]: 46900 M⁻¹ s⁻¹
B4 | 0.136 | 
B5 |  | EC50 (read off the curve); L929 cytotoxicity assay, inhibition rate (%) [3]: ~4 nM; EC50 [4]: 6.66 nM
B6 | 0.113 | 
B7 | 0.109 | 
B8 | 0.1 | 
